We go through 19 sequences from the DeepSol protein solubility set.

The nature of this series: soluble on expression in E. coli; label from the status in PepcDB or PDB records.
For “MTSVLDPDRALEDEAKDKFGFVGIAKQLAPPIIEAAKGEGMVIGLEGRWGSGKTSLLNFLRAELQASKKSGIHTITIAPWLNGDTSSLVLSLLEPMAAVLKQKEDELAESYGEGQSATKERVAEVGRLLRAYGPKTARRIASLANVAGYVLPGAQAIGGALAASASAADEIFDVGPTPSELKQELAVKIQELNVGFIVILDDLDRLEPEQAVEVVRLVRSVADFPKVVYLMCYDREVLSEALKTGLKVSDGDLFLQKIVQLTFNIPLPEPFDLRTQFRNEAKAIYFEATGVDLDGAILHDLTYAVDREGMGLSTPREVKLALNSIRFVFSQVKDDVYFPDLCRLHLIKTTNYKLYKWLEIYLSVRSVLVTGDATVSEDEKTKMGEELKMLLPASGPGSVHSIWSLARFIPGVVDTEKVSERVFNAINSSAISEAVRLKRLGSPLHYRFYFALTGPKTVMPDEDFNAILELARNDIDQLESRLAAETMKRRDSGRTWFEHVLDRLDDDCISSLDESQLSGILHALSGMMDIAMKEDGEVRSFALSLDGIANIVAKRCLVRLRELNPEKQANTVRSMAQDGKAINWLVGKFFRSQLFNHGKVGERAERPEQWEISEDLLDDIIEILRKRLSEQDIKNLIPNLPNVSAYLYGWMNLTDDDQAKNWVQEYSESDEGFLDILNHLRGWAMSDKVYYPLSEKTVSSFLDWNEVKTRLDGMQLEHHHHHH”, the “soluble on expression in E. coli” value is “not soluble”.

Consider “MTTAHISGDWRTRYQHVTSFYFKTNHKVWCKVILSLLHTHIPMIIFIDMKGVNMDLIIQTFPLDGKTLYYVQCPVCKNNRILNSGANVSRIISDDTFRKLCGCTCDVKPATSKVEAPKQVKKAAVKKEAAPKRTGKVLTAVINGKEMTVKEIAEAYDISTSTVRQRINAGKPESEIIAPTKKK”, for which the “soluble on expression in E. coli” value is “not soluble”.

In the case of “MTTHRRRPKHDPKESEQEILNAAKQFLNERPFRELTVDEVMRRTGLKRPAFYVHFRDKHDLALRLVQAIGQELFGIADRWLEGDNPQEDLRRALVGLVEVYMKHSHVLRAFAEAASGDERVNSIYRAFVQEFISAAAQHIREEQATGQIQKDIDIDETARALIWLEERYLSDVFGRMPPADPEVVIRVLQNIWISTLYGSN”, the “soluble on expression in E. coli” value was “soluble”.

On to “MTTLYSIQEKYQQLLNLAEQLDPEALKDTLESIEDELETKAENVAFVIKELEGQSLILDVEIKRLSERKNTINNNVKRLKQSLHDAMLVANKQKIKTNLFTLDIRKNPHSVFVEDESKLINYLVEQPKKLDKTKLKDDLKKGIDVPGAVLVQTERLQIK”, for which the “soluble on expression in E. coli” value is “not soluble”.

“MTTNKDHFMAKIQLVAQANLPTEYGIFKMVGFEFPDTKKEHVALVMGDISNADEPVLARIHSECLTGDALHSLKCDCGFQLATALKQIQEEGRGVLIYHREEGRGIGLINKIRAYSLQDKGMDTIEANLALGFKADERNFEVCADMFELLGVKKVRLMTNNPEKVETMKKAGINVVERVPLNVGENRYNTKYLDTKAKKMGHYIVHNNDEQHLMTCPHCQEEIILEHHHHHH”: the “soluble on expression in E. coli” value was “soluble”.

For “MTTPTFDINAAIQALREGKDLTGKDGILTPLIKQLTEAALAAELDSHLTSTEGANRKNGKTTKTIKSPLGNFELNTPRDRAGTFEPQLVKKHQTQLTDEMERKIIGLFSLGSSYQDIRAHIEDMYGMSVSNGTVNAITDKLLPELQAWRERELEPLYPVIWLDAIHYKIKENGRFISKAVYTILALNVDGKKELLGLYLSDNEGAHHWLSVLTDLYNRGVKDILIACVDGLKGFPEAIATIYPQTEVQLCVIHQIRNSIKYVASKHQKAFMADLKCVYKAATLNAAEMALDELETKWGDKYPVVIKSWRNKWALLSVYFKYPDYVRTAIYTTNAVEAVHRQFRKLAKTKGGFANENSLLKLLYAGILKASERWTHP”, the “soluble on expression in E. coli” value is given as “soluble”.

As for “MTTQNELLNRIAELETKVAFQDNVIEELNQVLIHHQFVLDKLQTQVRHFANKFKNIQSSNVASQAEETPPPHY”, the “soluble on expression in E. coli” value was “soluble”.

For “MTTRKPFIICDFDGTITMNDNIINIMKTFAPPEWMALKDGVLSKTLSIKEGVGRMFGLLPSSLKEEITSFVLEDAKIREGFREFVAFINEHEIPFYVISGGMDFFVYPLLEGIVEKDRIYCNHASFDNDYIHIDWPHSCKGTCSNQCGCCKPSVIHELSEPNQYIIMIGDSVTDVEAAKLSDLCFARDYLLNECREQNLNHLPYQDFYEIRKEIENVKEVQEWLQNKNAGESSLKLEHHHHHH”, the “soluble on expression in E. coli” value is reported as “soluble”.

Regarding “MTTTDVSWPKSLWHAVTGPGPGLPALHGAEEADVVVVGGGFSGLSTALHLREAGVDVAVVEAAEPGWGASGRNNGQVIPTLSRPDPEDIVAKHGAAGERLVGLIRDSASILFDVAKRHGVDAEQEQNGWVQPVHSPGRIKIAERRFRQWSKFGAPVELLSRDQVRDMLGSEAWFGGFWNRTGGHVNPLALARGLARAVLAQGGRIFARSPAVSIERRGDRWIVKTAQGEISGRALVVASNAYTGEFSKTLAPAIASEVMPVRSWQMATQPLSDNVRKTIIPGRQAMSDTHGELIFGRFDARNRFVTGGAIIRPFNQIATLKARVGKRLQRLWPQIGEVRFDYVWNGFIGMTTDYLPHIHRLGPNAYGWTGCNGRGVALSVALGRELSKAVRGVTDGELALPFTEPTPIPANELLRPFAPLMMVLYRHRDAKEIGLEHHHHHH”, the “soluble on expression in E. coli” value is “not soluble”.

In the case of “MTTTGHVHFYIGTYTNPPSTSTSTGIARLSLNTETGELTRLDDVVVQRNPSYLTTTEHGLYTFSEMDRNEGTELAFFRGSESVSLPINGDYPCHLDIKEPLLAVANYGSGNVSVFQLDRDGKPLGLLADLYVDGCGPNLERQTSPHAHQVTFLKHSHQLVVVDLGSDSVLIYDYDAQPPDFSLSQVIHLPAGSGPRHVVFNQQESTAYVVCELSETLIVLVKHQDKWLISNQTELLEGEENQQAAAAIRLSQDETFLYVSCRAQNKISMFDVSGDTPKRRAAIHCEGVFPRDFVLSHDQKWLLVANQHSNNVVSFRRNPQTGEITPTGYDCEIGSPVCIVEQPLLEHHHHHH”, the “soluble on expression in E. coli” value is “not soluble”.

For the sequence “MTTTPIADQAAVLAEGMADQTPSEALEAFGAEQAELDAAGVPSGIATAGSLMPDASLLDVHGNATTLQQVREGRPAVVVFYRGAWCPYCNLALRTYERELAPRLAERGVSMIAVSPQRPDGSLTMAQTNDLSYDVLSDPGNHIGRALGIVTRPTDRVQHAQASLGLDLTEVNADGTPDILMPTVAIVDAEGVLRWIDVHPNYVTRSEPARILEALARAVR”, the “soluble on expression in E. coli” value is “not soluble”.

“MTTTTTVRQCRVTRIGSTELPPRVENAIQFLDDQCYEKLGGTVVMKWFGNRVPPEDHRQLSSFCHVVNLTKYDDDPKSRYHKDDIECACGTSSNLFFLKKFNEAVEKYPCDDDETITKAPTTEPSDDLWCWQLRSRSFASSPPPPRMKNAIQLLDDKCYAKLGGTTVMKWFGNVVTPEGKVCFVINLTDSKMKLYKKEIVCACGRQSYVFFLEGLILMREKYSCNDKTTTKSTRTTPSTTTAKQCYVRRTGSSVSPPRETDAIPMLDDQCYEKMGGTSVMDRFGNREPPKSVYEYSEFCLLVDVTLNGPAMETYQSDIECVCGISSLEFFLEKFEEAIKKYPCDNDGATEAATTKPTTTTVTTTTVPPKTDPPRTEPPKTEPPTTEPPKIEPPRTEPPKTEPPPTEPPKTEPPKTTPPKTEPPTTEPPNIPYCWQQQSRLFAPSPPPPRVNNTMPLIEDKCYAKLGDTLVMAWFGNRAPPKNFTEVLDFCTVAALTYNNESAVFSVFKKDIQCNCDKLSFSRFLKKLSEAMEKYQCNNVWTRTEAPETVTTRTEPPRTEPPRTIPPRTEAPRTEPPRTEPPKTEAPRTVRPKTEAPMTVPPRTEPPMTEAPRTEVPMTEPPKTEPPRTAPPRTEVSMTLPPETVPPNTEAPRTEVPMTVPPRTEPPKTEAPRTVPPKTEAPMTEVPMTGPSRTEVPMTEPPKTEQPRTAPPRTEVSMTLPPETVPPKTEAPRTEVPMTGPSRTEVPMTVTPETGLSSTVTSKTEPPKTTTEKRITPRTEVPKTVPPRTGPPMTVPPGTEAPTTEAPMTITPRTEQLRTEQLRTDQSKTVTPKTKITVWPTDYRGPI”: the “soluble on expression in E. coli” value is “not soluble”.

“MTVIALRHLGPAERKSFARHLAGGDFPGKGAWDDGTVVLDRVLDGLGDEAGRALIEGALAKASRMVVVTLGGEAAARWTPEVLGPAFVYLLGEAIDADSPAVALAFLDGPGRPRLFAPRFSVMVPVYNHRDLIGACLDSIAAQSWPLWEAVVVDDGSTDGVATLLTERAAADPRLRWSSQANGGTGAALNACLAMAREEWIAWLSSDDLFAPDKLAAHAALLRRDGLAPAFHHTAVIRRNDAGEEQVVAPLGPLMTGSAGLRRLAMTSVNLIQGISIVVHRDLFAQTAGFDPRNRFTQDYAMWVRLMERTDPVYLPLVTAVTRVGAAQTTARHYQRTRAEAIAAILGALRDFSAGAPDDREARLEAVAALVMLASSPHGFLARYGLQGWYVARAMGLAAEAKVLGATFADVSARLGPWSVGHIHDPQAMGHLAMIESVFREDKAAAPIDPFRILTRMLISPTIPADLAEAITGFLRGDLPQPLEHHHHHH”: the “soluble on expression in E. coli” value is given as “not soluble”.

With “MTVKQTVEVTNKLGMHARPAMKLFELMQGFDAEVLLRNDEGTEAEANSVIALLMLDSAKGRQIEIEATGPQEVEALAAVIALFNSGFDED”, the “soluble on expression in E. coli” value is recorded as “not soluble”.

As for “MTVKVCVCGGGNGAHTLSGLAASRDGVEVRVLTLFADEAERWTKALGADELTVIVNEKDGTQTEVKSRPKVITKDPEIAISGADVVILTVPAFAHEGYFQAMAPYVQDSALIVGLPSQAGFEFQCRDILGDKAAAVSMMSFETLPWACRIKEFGRKVEVLGTKSVLAASLIKGTAKTVDPLSTLQMLHGAEPVFRLAKHFLEMLIMSYSFVHPAILFGRWGSWDGKPVPEAPLFYQGIDQATADMLTACSNECKDVANAIMAACPGNDLSDVKDIYQWYLEYYHEDIQDDHDLYHAITTNKSYKGLVHPVKAVDGGVAPDFGNRYLTEDIPMGMIVFKGVAIAAGVAIPSNDKLIMWAQEKIGKEYLVDGALTGKDVATTRCPQRYGFNTLDAILTGKKHHHHH”, the “soluble on expression in E. coli” value is “soluble”.

In the case of “MTVVIGVLALQGAFIEHVRHVEKCIVENRDFYEKKLSVMTVKDKNQLAQCDALIIPGGESTAMSLIAERTGFYDDLYAFVNPSKVTWGTCAGLIYISQQLSNEAKLVKTLNLLKVKVKRNAFGRQAQSSTRICDFSNFIPHCNDFPATFIRAPVIEEVLDPEHVQVLYKLDGKDNGGQELIVAAKQKNNILATSFHPELAENDIRFHDWFIREFVLKNYSK”, the “soluble on expression in E. coli” value was “not soluble”.

For the sequence “MTYNVWNFGESNGRYSALTARGISKETCQKAGYWIAKVDGVMYQVADYRDQNGNIVSQKVRDKDKNFKTTGSHKSDALFGKHLWNGGKKIVVTEGEIDMLTVMELQDCKYPVVSLGHGASAAKKTCAANYEYFDQFEQIILMFDMDEAGRKAVEEAAQVLPAGKVRVAVLPCKDANECHLNGHDREIMEQVWNAGPWIPDGVVSALSLRERIREHLSSEESVGLLFSGCTGINDKTLGARGGEVIMVTSGSGMVMSTFVRQQALQWGTAMGKKVGLAMLEESVEETAEDLIGLHNRVRLRQSDSLKREIIENGKFDQWFDELFGNDTFHLYDSFAEAETDRLLAKLAYMRSGLGCDVIILDHISIVVSASGESDERKMIDNLMTKLKGFAKSTGVVLVVICHLKNPDKGKAHEEGRPVSITDLRGSGALRQLSDTIIALERNQQGDMPNLVLVRILKCRFTGDTGIAGYMEYNKETGWLEPSSYSGEEESHSESTDWSNDTDF”, the “soluble on expression in E. coli” value is “soluble”.

Regarding “MVAAWNRWDLSGIIKHWSPDIVHYSEDNEVSSADMVKLMEGGLKAFPDLQLEMKSIMAEEDRVALRITVTATHQGEFMGVQPTGQRVSWHLVEELRFVDGKVVEHWDVINMRPLLVRLGKLPDVPKVVLEASA”, the “soluble on expression in E. coli” value is “soluble”.

For “MVADNSEKSTKSVANGSLISTVSSKDDLPNAIIVTQVPEDVFDNKQDKANFSSLFTQIEKDIHFDFLRSFRRVRVIFSSPENATAAKLIVQGFSFKGHELKAFFAQRIYMSANSQMLSPPPLEKQFLISPPCSPPVGWEQTKDMPPVVCNFDLMARLASFAIDEKYEVHNGDELTPAIIVHPCETPIDVPSAIEMPRTPRPSSPCEQ”, the “soluble on expression in E. coli” value is “not soluble”.
